{"source": "patent US20200377560A1", "about": "(WYL SCIENCES, published 2020)", "binders": {"B1": {"name": "monoclonal antibody #19 (4G6C5) (antibody, V domains shown)", "VH": "VMLVESGGGLVKPGGSLKLSCAASGFTFSRYAMSWNRQTPEKRLEWVATISPGGGYIYYSDSVKGRFTISRDNARNTLYLQMSSLRSEDTAMYYCAGDYVDYWGQGTTLTVSS", "VL": "not shown", "notes": "Mouse hybridoma monoclonal antibody; also called antibody 4G6C5; hybridoma #19"}}, "target": "T1, bovine serum albumin (bovine, UniProt P02769 25-607)", "T1 construct": "Control protein in the dot immunoblot; also called BSA", "T1 sequence (P02769 25-607 limits assumed)": "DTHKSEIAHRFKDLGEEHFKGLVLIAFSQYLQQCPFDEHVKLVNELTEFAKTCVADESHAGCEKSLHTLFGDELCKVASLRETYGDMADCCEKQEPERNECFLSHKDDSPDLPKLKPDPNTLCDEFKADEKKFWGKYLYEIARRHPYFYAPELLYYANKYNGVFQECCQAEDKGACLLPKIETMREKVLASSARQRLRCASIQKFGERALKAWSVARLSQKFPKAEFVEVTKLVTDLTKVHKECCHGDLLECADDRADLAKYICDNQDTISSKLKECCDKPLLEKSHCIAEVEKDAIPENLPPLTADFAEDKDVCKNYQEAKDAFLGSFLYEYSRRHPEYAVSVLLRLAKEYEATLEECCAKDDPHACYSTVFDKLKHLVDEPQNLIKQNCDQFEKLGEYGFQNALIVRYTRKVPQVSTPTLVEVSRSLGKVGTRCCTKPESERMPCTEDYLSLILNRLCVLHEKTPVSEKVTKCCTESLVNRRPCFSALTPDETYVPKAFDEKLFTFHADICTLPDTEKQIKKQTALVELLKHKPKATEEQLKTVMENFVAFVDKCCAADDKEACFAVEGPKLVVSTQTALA", "test": "dot immunoblot, BSA dotted as control", "from_the_text": "The fusion protein containing the full-length royalactin with a histidine tag (SEQ ID NO: 2), which was confirmed to have biological activity in Example 1, was produced in bacteria and purified. This protein was used to generate monoclonal antibodies by injection into mice with subsequent harvest of the spleen for generation of multiple hybridomas. Individual hybridomas were isolated and the antibody produced was screened using dot immunoblot assays. Various concentrations of royalactin were dotted onto the blot with bovine serum albumin (BSA) as a control.", "data": [{"binder": "B1", "values": [{"measurement": "binding result", "value": "no binding (tested: 2 ng)"}]}]}
